Test results from US20200261603A1 (published 2020).
Positions count from the first letter of the chain named. Like-named read-outs stand apart in the source and are kept apart here.

B1: P10-1 Fab (Fab, V domains shown)
VH: QVQLVQSGAEVKKPGASVKVSCKASGYTFTNYGLSWVRQAPGQGLEWMGENHPGSGIIYHNEKFRGRVTLTADRSTSTAYMELSSLRSEDTAVYYCARSSGTRGFAYWGQGTLVTVSS
VL: DVVMTQTPLSLSVTPGQPASISCRSSQSIVHSNGNTYLEWYLQKPGQSPQLLIYRVSNRFSGVPDRFSGSGSGTDFTLKISRVEAEDVGVYYCFQGSHGPWTFGQGTKLEIKR
B2: P10-1 Fab Dye (Fab, V domains shown)
VH: B1 VH
VL: B1 VL
modifications: IRDye800CW (NHS ester) on Lys of the Fab fragment; number and positions not stated
B3: P10-2 Fab (Fab, V domains shown)
VH: B1 VH with A106D
VL: B1 VL
modifications: heavy chain N-terminal glutamine was modified into pyroglutamic acid in a great majority of purified antibodies
B4: P10-2 Fab Dye (Fab, V domains shown)
VH: B1 VH with A106D
VL: B1 VL
modifications: IRDye800CW (NHS ester) on Lys of the Fab fragment; number and positions not stated; IRDye800CW (NHS ester) on Lys of the Fab fragment; number and positions not stated; N-terminal glutamine largely pyroglutamic acid
B5: P10-2 Fab DFO (Fab, V domains shown)
VH: B1 VH with A106D
VL: B1 VL
modifications: p-SCN-Bn-deferoxamine on Lys of the Fab fragment; number and positions not stated; p-SCN-Bn-deferoxamine on Lys of the Fab fragment; number and positions not stated; N-terminal glutamine largely pyroglutamic acid

Legend:
[1] = target: T1, human cancer-specific MUC1 (human, UniProt P15941 24-1255, cancer-specific incomplete O-glycosylation (T, Tn, 2,3ST) of threonine at position 9 of the 20-amino acid tandem repeat … (SEQ ID NO: 15), as the background describes it); assay: Cell ELISA
[2] = target: T1, human cancer-specific MUC1; assay: Cell ELISA; remark: listed apart in the source

Row | Binder | Kd [1] [nM] | Kd [2] [nM]
1 | B1 | 0.35 | 
2 | B2 | 0.66 | 
3 | B3 | 0.29 | 0.37
4 | B4 | 0.49 | 
5 | B5 |  | 0.36
